Results on three substances are retold here after patent US20110195027A1.

Several values for one entry are separate records, joined by “and”; a condition that tells them apart may be missing. Equal values may be shown once.

Holding throughout (experiment): ELISA: antibody coated, supernatant, anti-His-HRP
A general note: In an ELISA, binding on a coated surface is turned into a signal by an enzyme label.

Test [1] has as its target p-Myc-His CD9-ECL2 wild type (human).
Test [2] addresses CD9-ECL2 mutant M1 (human, with rat residues) (UniProt P21926).
For test [3], the target named is CD9-ECL2 mutant M4 (human, with rat residues) (UniProt P21926).
Chain of CD9-ECL2 mutant M4 (human, with rat residues) (P21926 other isoform, or with tags, fused parts or gaps mutant): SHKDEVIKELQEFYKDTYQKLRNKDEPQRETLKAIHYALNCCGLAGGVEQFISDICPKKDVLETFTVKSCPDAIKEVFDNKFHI

Chain of CD9-ECL2 mutant M1 (human, with rat residues) (P21926 other isoform, or with tags, fused parts or gaps mutant): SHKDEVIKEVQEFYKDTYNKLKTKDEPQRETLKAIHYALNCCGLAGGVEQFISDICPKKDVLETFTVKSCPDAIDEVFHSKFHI
Chain of p-Myc-His CD9-ECL2 wild type (human) (chain, as listed by the source limits assumed): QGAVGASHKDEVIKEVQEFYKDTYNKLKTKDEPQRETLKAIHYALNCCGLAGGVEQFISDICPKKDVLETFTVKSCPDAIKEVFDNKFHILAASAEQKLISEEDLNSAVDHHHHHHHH

As for “ALB6 (anti-CD9, Beckman coulter) (antibody)”, the OD490 in test [1] is 0.427 and 0.506; in test [2], 0.334 and 0.383; in test [3] it was 0.485 and 0.574.
normal human IgG (antibody): the OD490 amounted to 0.056 in test [1], 0.054 in test [2] and 0.053 in test [3].
On to normal mouse IgG (antibody), for which the OD490 in test [1] is 0.044 and 0.053; in test [2] it was 0.046 and 0.056; in test [3] it was 0.04 and 0.047.
